Data reported in paper PMC5454376, “Molecular mechanism of Gαi activation by non-GPCR proteins with a Gα-Binding and Activating motif” (Nature Communications, 2017).

B1: A2bR: human GPCR A2b receptor expressed in yeast (protein, UniProt P29275 1-332, looked up)
Adenosine receptor A2b: MLLETQDALYVALELVIAALSVAGNVLVCAAVGTANTLQTPTNYFLVSLAAADVAVGLFAIPFAITISLGFCTDFYGCLFLACFVLVLTQSSIFSLLAVAVDRYLAICVPLRYKSLVTGTRARGVIAVLWVLAFGIGLTPFLGWNSKDSATNNCTEPWDGTTNESCCLVKCLFENVVPMSYMVYFNFFGCVLPPLLIMLVIYIKIFLVACRQLQRTELMDHSRTTLQREIHAAKSLAMIVGIFALCWLPVHAVNCVTLFQPAQGKNKPKWAMNMAILLSHANSVVNPIVYAYRNRDFRYTFHKIISRYLLCQADVKSGNGQAGVQPALGVGL
B2: GIV-CT: His-tagged human GIV residues 1,660–1,870 (protein)
chain: SETLESRHHKIKTGSPGSEVVTLQQFLEESNKLTSVQIKSSSQENLLDEVMKSLSVSSDFLGKDKPVSCGLARSVSGKTPGDFYDRRTTKPEFLRPGPRKTEDTYFISSAGKPTPGTQGKIKLVKESSLSRQSKDSNPYATLPRASSVISTAEGTTRRTSIHDFLTKDSRLPISVDSPPAAADSNTTAASNVDKVQESRNSKSRSREQQSS
modifications: left off: His tag, N-terminal, kept

Experiments:
[1] = system: Gpa1(1–41)-human Gαi3 (36–354) in S. cerevisiae; experiment: G-protein activation in yeast (Fus3 phosphorylation); assay type: cell-based; conditions: strain MMY11, ppFus3 immunoblot
Source text: G-protein activation assay in yeast
The native G-protein-dependent pheromone response pathway is similarly modified in both strains: the pheromone-activated GPCR (Ste2 or Ste3), endogenous Gα-subunit (Gpa1) and the cell cycle arrest-inducing protein far1 are deleted. In MMY11, the G-protein inhibitor Sst2 is also deleted. Both strains were transformed with a centromeric plasmid (CEN TRP) encoding a chimeric yeast Gpa1(1–41)-human Gαi3 (36–354) protein under the control of the endogenous Gpa1 promoter[68] (courtesy of Mary Cismowski, Nationwide Children's Hospital) using the lithium acetate method. […] Individual colonies were inoculated into 3 ml of SDGalactose-Trp-Ura and incubated overnight at 30 °C to induce the expression of the proteins of interest under the control of the galactose-inducible promoter of pYES2. This starting culture was used to inoculate 20 ml of SDGalactose-Trp-Ura at 0.3 OD600. Exponentially growing cells (∼0.7–0.8 OD600, 4–5 h) were pelleted to prepare samples for immunoblotting (see below). […]
Yeast protein samples for immunoblotting were prepared by acid lysis and precipitation followed by neutralization and solubilization. […] Proteins (∼15–20 μl per lane) were separated by SDS–PAGE, blocked in PBS supplemented with 5% BSA and analysed by sequential incubation with primary and secondary antibodies. […]

Gαi3-GDP = experiment: NMR perturbation of Gαi3-GDP backbone amide signals; assay type: binding, human; conditions: 30 °C, pH 7.0, TROSY
Method: Full-length human Gαi3 (UNIPROT entry P08754) cloned in a pET24d(+) plasmid (a generous gift from Ichio Shimada, University of Tokyo) was used to purify the protein used in NMR experiments. For this, protein expression was induced in BL21 Rosetta (Life Technologies) cell cultures with 1 mM IPTG for 16 h at 23 °C in a modified M9 minimal medium containing 1 g l^−1 15N-NH4Cl, 2 g l^−1 2H-^13C-glucose and 1 g l^−1 of ^2H-^13C-^15N Celtone base powder in ^2H2O with 30 mg l^−1 kanamycin and 34 mg l^−1 chloramphenicol. The pelleted cells were lysed by sonication in 50 mM Tris, 200 mM NaCl, 100 mM KCl and 1 mM DTT at pH 8.0, and the supernatant was loaded on a Ni^2+-loaded His-Trap FF column. […]
All NMR data were measured on a Bruker Avance III 800 MHz (18.8 T) spectrometer equipped with a cryogenically cooled triple resonance z-gradient probe, processed with Topspin (Bruker) and analysed with Sparky. […] Gαi3 spectra were recorded at 30 °C on ^2H-^13C-^15N–Gαi3 samples with a threefold molar excess of GDP in 10 mM HEPES (pH 7.0) with 10 mM MgCl2, 5 mm DTT, 0.01% NaN3 and 5% ^2H2O. […] The assignment of Gαi3 resonances in the presence of a fivefold molar excess of GIV fragment 1,671–1,696 was achieved from the joint analysis of an HNCO and ^1H–^15N TROSY spectra recorded along a titration (at molar ratios 1:0, 1:0.2,1:0.5, 1:1, 1:2 and 1:5). […]

[2] = Circular dichroism and thermal denaturation of GIV-CT; assay type: physicochemical
Method: Circular dichroism measurements were performed on a Jasco J-810 spectropolarimeter (JASCO, Tokyo, Japan). The circular dichroism spectrum was recorded on a GIV-CT protein sample 8.4 μM in PBS (pH 7.0) with 0.2 mM DTT in a 0.2 cm path length quartz cuvette at 25 °C. The thermal denaturation curve from 5 to 95 °C was recorded on the same protein sample and cuvette by increasing temperature at a rate of 1 °C min^−1 and measuring the change in ellipticity at 222 nm.

| Molecule | activation of Gαi3 WT and Gαi3 N256E [1] | activation of Gαi3 ΔC9 [1] | fraction of assigned peaks with significant chemical shift perturbations (Gαi3-GDP) [%] | overall decrease in signal intensity (median) (Gαi3-GDP; twofold molar excess GIV-CT) [fold] | thermal denaturation ([2]; 5 to 95 °C, 1 °C min^−1, ellipticity at 222 nm, PBS pH 7.0) | secondary structure by circular dichroism ([2]; […] in PBS pH 7.0, 0.2 mM DTT, 25 °C) |
| --- | --- | --- | --- | --- | --- | --- |
| B1 | equally | completely blunted | – | – | – | – |
| B2 | – | – | < 20 | ~3 | no cooperative transition | little, if any, secondary structure |
